This is an account of results in US20100099619A1.

neuropeptide Y4 receptor, sequence (P50391 whole entry): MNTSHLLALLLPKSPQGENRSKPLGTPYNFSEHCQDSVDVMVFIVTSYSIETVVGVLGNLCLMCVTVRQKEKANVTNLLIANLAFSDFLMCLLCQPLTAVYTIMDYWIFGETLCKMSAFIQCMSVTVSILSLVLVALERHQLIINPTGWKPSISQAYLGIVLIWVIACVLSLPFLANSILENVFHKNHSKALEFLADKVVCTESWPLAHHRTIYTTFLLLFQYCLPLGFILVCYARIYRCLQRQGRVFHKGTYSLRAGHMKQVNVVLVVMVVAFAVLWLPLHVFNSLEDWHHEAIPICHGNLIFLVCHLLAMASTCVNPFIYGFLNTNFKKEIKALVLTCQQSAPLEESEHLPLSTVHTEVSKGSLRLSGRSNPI

The experiment concerns the target neuropeptide Y4 receptor. As to the kind of experiment: competition vs [125I]-hPP, Y4-transfected CHO-K1 membranes.
“NPY (human neuropeptide Y) (peptide; modification not given)” yielded a Y4 RBA of 39 nM.
“PYY (human peptide YY) (peptide; modification not given)” came in with a Y4 RBA of 4.5 nM.
“PYY(3-36) (peptide; modification not given)”: the Y4 RBA came to 54 nM.
